Results published in patent publication US20200079833A1 (AstraZeneca / MedImmune, published 2020).
Starred links: 1 amine or outer side, 2 acyl side, 3 side chain; linkers in the order of their positions; H or OH if unused. Non-standard residues stand in square brackets, D forms with d. Groups on a side chain read outwards from the residue. Primed or numbered codes have the meaning given here. No end group written: not given here. *: point of attachment. Tyr(OMe) = COc1ccc(C[C@H](N[*:1])C(=O)[*:2])cc1; γGlu = O=C(O)[C@H](CCC(=O)[*:2])N[*:1]; αMeF = C[C@](N)(Cc1ccccc1)C(=O)O; Myristoyl = CCCCCCCCCCCCCC(=O)*; αMeK = C[C@](N)(CCCCN)C(=O)O; Lauroyl = CCCCCCCCCCCC(=O)*; αMeS = C[C@](N)(CO)C(=O)O; Nle = CCCC[C@H](N)C(=O)O; PEG2′ = not defined here; Aib = CC(C)(N)C(=O)O

B1: SEQ ID NO: 407 (peptide)
peptide: H[Aib]EGS[αMeF]TSDV[αMeS]SK([PEG2′-PEG2′-γGlu-Lauroyl])LEGEAA[αMeK]E[Nle]IAK([PEG2′-PEG2′-γGlu-Lauroyl])VVEGG-NH2
B2: SEQ ID NO: 270 (peptide)
peptide: H[Aib]EGS[αMeF]TSDV[αMeS]SYK([PEG2′-PEG2′-γGlu-Lauroyl])EGEAA[αMeK]EFIAWK([PEG2′-PEG2′-γGlu-Lauroyl])VEGG-NH2
B3: SEQ ID NO: 405 (peptide)
peptide: H[Aib]EGS[αMeF]TSDV[αMeS]SK([PEG2′-PEG2′-γGlu-Lauroyl])LEGEAA[αMeK]E[αMeF]IAK([PEG2′-PEG2′-γGlu-Lauroyl])VVEGG-NH2
B4: SEQ ID NO: 268 (peptide)
peptide: H[Aib]EGS[αMeF]TSDV[αMeS]SYK([PEG2′-PEG2′-γGlu-Lauroyl])EGEAA[αMeK]EFIK([PEG2′-PEG2′-γGlu-Lauroyl])WVVEGG-NH2
B5: SEQ ID NO: 406 (peptide)
peptide: H[Aib]EGS[αMeF]TSDV[αMeS]SK([PEG2′-PEG2′-γGlu-Lauroyl])LEGEAA[αMeK]E[Tyr(OMe)]IAK([PEG2′-PEG2′-γGlu-Lauroyl])VVEGG-NH2
B6: SEQ ID NO: 408 (peptide)
peptide: H[Aib]EGS[αMeF]TSDV[αMeS]SK([PEG2′-PEG2′-γGlu-Myristoyl])LEGEAA[αMeK]E[αMeF]IAK([PEG2′-PEG2′-γGlu-Myristoyl])VVEGG-NH2

Target: T1, GLP-1R in the INS1e assay (UniProt P32301 22-463, limits assumed)
T1 sequence (looked up): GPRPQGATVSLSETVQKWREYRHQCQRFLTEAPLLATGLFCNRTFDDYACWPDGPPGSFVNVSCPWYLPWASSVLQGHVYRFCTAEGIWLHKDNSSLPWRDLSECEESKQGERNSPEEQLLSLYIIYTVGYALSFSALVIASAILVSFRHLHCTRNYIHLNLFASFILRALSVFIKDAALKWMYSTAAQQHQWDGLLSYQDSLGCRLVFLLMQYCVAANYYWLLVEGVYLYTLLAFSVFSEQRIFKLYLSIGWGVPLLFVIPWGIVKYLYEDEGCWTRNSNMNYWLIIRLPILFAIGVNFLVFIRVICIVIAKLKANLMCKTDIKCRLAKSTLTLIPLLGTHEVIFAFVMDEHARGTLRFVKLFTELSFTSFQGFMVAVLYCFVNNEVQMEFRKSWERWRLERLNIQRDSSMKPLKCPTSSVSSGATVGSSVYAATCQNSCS
Assay: cell-based or functional assay

| Binder | INS1e assay EC50 (cAMP) Mean [nM] | INS1e assay EC50 (cAMP) n1 [nM] | INS1e assay EC50 (cAMP) n2 [nM] |
| --- | --- | --- | --- |
| B1 | 0.104 | 0.113 | 0.0952 |
| B2 | 1.72 | 1.41 | 2.02 |
| B3 | 0.116 | 0.11 | 0.121 |
| B4 | 1.16 | 1.09 | 1.23 |
| B5 | 0.094 | 0.101 | 0.0872 |
| B6 | 0.412 | 0.376 | 0.448 |

Target: GLP-1 receptor (GLP-1R), primary cAMP assay (human, UniProt P43220 24-463)
Assay: cell-based or functional assay

| Binder | Primary assay EC50 (cAMP) Mean [nM] | Primary assay EC50 (cAMP), n1 [nM] | Primary assay EC50 (cAMP), n2 [nM] |
| --- | --- | --- | --- |
| B1 | 0.002 | 0.00196 | 0.00201 |
| B2 | 0.0329 | 0.0293 | 0.0365 |
| B3 | 0.0039 | 0.00405 | 0.00366 |
| B4 | 0.0048 | 0.00446 | 0.00505 |
| B5 | 0.0023 | 0.00219 | 0.00231 |
| B6 | 0.0089 | 0.00996 | 0.00789 |

Target: glucagon receptor (GCGR), primary cAMP assay (human, UniProt P47871 26-477)
Sequence (P47871 26-477): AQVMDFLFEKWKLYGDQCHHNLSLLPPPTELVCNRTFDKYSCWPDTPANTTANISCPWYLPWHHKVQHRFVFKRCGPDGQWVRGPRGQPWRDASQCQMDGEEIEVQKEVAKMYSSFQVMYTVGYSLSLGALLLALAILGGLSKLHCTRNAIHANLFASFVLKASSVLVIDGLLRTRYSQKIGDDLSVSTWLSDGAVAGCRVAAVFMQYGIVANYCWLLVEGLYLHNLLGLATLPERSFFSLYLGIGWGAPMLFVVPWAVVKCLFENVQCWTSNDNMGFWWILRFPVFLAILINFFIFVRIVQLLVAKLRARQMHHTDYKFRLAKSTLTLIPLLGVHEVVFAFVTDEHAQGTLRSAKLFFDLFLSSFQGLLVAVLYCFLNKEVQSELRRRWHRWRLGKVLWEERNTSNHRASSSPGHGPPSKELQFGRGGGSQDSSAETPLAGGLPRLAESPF
Assay: cell-based or functional assay

| Binder | Primary assay EC50 (cAMP), n1 [nM] | Primary assay EC50 (cAMP), n2 [nM] |
| --- | --- | --- |
| B1 | 21.5 | 21.5 |
| B2 | 22.3 | 22.3 |
| B3 | 21.5 | 21.5 |
| B4 | 22.2 | 22.2 |
| B5 | 21.5 | 21.5 |
| B6 | 21.5 | 21.5 |

Target: T2, glucose-dependent insulinotropic peptide (gastric inhibitory polypeptide) receptor (GIPR), primary cAMP assay (human, UniProt P48546 22-466)
T2 sequence (looked up): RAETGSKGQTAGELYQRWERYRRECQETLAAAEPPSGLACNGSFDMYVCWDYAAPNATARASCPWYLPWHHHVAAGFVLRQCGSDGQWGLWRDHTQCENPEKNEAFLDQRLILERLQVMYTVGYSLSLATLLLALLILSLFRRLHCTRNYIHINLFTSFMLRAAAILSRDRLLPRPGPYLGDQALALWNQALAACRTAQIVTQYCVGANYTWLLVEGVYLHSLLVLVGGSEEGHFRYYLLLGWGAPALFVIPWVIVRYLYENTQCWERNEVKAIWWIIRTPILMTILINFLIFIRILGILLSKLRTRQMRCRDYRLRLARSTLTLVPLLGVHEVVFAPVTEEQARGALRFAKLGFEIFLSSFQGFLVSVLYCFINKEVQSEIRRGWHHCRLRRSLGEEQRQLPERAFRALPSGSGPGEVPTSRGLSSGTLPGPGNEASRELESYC
Assay: cell-based or functional assay

| Binder | Primary assay EC50 (cAMP), n1 [nM] | Primary assay EC50 (cAMP), n2 [nM] |
| --- | --- | --- |
| B1 | 21.5 | 21.5 |
| B2 | 22.3 | 22.3 |
| B3 | 21.5 | 21.5 |
| B4 | 22.2 | 22.2 |
| B5 | 21.5 | 21.5 |
| B6 | 21.5 | 21.5 |
